What all share (assay): flow cytometry on fixed transfected C2C12 cells
For orientation: A flow cytometer gives signals particle by particle.

In experiment [1] the target is T1, human integrin α11-EGFP expressed on C2C12 mouse myoblast cells (human, UniProt Q9UKX5 23-1188).
T1 construct: whole, on cells; Alpha chain fused to EGFP, expressed in mouse C2C12 cells, which express no human integrins; the beta-1 partner chain on these cells is not described; In the Western blot the cell lysate was used; also called C2C12-α11 EGFP; C2C12-hu α11-EGFP; not shown: EGFP tag
T1 sequence (looked up): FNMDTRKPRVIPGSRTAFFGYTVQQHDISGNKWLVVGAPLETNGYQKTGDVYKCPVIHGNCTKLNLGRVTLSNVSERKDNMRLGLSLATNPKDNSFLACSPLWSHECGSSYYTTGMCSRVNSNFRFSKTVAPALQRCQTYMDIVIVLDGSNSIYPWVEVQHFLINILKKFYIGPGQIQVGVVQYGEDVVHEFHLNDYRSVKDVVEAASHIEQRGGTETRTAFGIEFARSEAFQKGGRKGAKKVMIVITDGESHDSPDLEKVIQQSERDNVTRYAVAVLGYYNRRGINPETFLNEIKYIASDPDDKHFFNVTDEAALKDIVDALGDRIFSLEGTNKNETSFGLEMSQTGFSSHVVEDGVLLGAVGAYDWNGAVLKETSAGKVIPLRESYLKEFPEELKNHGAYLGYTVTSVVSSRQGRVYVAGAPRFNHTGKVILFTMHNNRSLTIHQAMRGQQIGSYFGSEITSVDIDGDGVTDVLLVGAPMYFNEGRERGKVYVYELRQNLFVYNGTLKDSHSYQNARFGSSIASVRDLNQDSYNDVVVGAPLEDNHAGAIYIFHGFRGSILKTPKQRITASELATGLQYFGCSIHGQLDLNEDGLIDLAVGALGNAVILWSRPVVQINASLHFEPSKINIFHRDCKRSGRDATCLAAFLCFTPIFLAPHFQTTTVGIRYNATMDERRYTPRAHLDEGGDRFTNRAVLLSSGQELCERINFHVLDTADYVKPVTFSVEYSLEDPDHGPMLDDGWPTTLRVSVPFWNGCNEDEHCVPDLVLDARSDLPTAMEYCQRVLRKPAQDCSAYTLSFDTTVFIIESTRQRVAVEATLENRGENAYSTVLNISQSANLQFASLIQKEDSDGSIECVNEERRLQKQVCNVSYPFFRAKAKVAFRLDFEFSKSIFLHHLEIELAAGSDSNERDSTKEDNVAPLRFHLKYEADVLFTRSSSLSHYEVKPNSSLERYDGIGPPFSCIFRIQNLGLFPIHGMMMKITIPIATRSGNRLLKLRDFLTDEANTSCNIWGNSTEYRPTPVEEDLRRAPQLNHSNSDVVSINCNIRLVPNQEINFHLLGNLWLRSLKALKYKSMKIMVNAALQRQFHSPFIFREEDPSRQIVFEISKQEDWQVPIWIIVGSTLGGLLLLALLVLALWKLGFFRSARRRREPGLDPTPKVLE
On the procedure:
(§1) To identify the epitope of the deposited integrin alpha-11 monoclonal antibodies. C2C12 cells were transfected with plasmids containing cDNAs encoding human integrin alpha-2-mCherry, human integrin alpha-11-EGFP, chimeric alpha-11Ialpha2mCherry or chimeric alpha-21-alpha-11EGFP as shown in FIG. 4a. Transfection was conducted as described in the art. 2% paraformaldehyde/PBS fixed transfected C2C12 cells were incubated with either antibody 203E1H5, see FIG. 4b or with antibody 234H11E8, see FIG. 4c, mouse anti-human alpha-11 IgG antibodies according to the present invention and then incubated with conjugated goat-anti mouse IgG, Alexa Fluor® 647 and analysed using a FACS Accuri measuring the dye accordingly.

For experiment [2], the target named is T2, chimeric human integrin alpha-2 carrying the alpha-11 I-domain, mCherry fusion, on C2C12 cells (human, UniProt P17301 30-168; Q9UKX5 161-355; P17301 367-1181).
T2 construct: also called chimeric alpha-11Ialpha2mCherry; not shown: mCherry tag
T2 sequence (looked up): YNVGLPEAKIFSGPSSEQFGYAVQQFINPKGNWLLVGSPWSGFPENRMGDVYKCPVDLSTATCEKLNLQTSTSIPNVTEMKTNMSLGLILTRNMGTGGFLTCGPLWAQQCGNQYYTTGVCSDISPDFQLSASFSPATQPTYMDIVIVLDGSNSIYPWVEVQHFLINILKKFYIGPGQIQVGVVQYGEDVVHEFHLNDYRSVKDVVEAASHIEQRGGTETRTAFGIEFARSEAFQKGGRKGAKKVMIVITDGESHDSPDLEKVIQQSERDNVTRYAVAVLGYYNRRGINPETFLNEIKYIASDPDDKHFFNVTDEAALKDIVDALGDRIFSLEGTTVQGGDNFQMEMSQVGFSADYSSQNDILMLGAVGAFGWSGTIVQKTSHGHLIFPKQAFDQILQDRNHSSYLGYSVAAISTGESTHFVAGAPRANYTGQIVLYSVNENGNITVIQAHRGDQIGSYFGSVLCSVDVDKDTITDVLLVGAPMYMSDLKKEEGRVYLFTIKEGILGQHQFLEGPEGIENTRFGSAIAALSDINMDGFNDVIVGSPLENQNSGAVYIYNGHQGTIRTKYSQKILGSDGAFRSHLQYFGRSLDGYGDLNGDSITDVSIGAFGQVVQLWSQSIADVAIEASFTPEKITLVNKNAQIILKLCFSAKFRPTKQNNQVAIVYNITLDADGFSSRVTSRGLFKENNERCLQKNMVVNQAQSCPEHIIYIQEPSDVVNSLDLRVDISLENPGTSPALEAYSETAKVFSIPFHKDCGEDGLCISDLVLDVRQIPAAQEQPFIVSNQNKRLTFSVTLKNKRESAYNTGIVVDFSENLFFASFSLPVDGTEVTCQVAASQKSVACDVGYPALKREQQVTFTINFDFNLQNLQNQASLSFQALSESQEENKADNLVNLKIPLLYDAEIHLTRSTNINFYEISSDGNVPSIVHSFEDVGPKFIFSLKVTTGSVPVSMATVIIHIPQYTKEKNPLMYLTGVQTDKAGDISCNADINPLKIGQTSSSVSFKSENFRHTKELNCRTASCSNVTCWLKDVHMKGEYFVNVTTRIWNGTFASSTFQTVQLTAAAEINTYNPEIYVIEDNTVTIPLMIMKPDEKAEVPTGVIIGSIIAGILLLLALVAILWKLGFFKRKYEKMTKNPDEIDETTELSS
As to the method:
as §1

For experiment [3], the target named is T3, human integrin alpha-2-mCherry expressed on C2C12 cells (human, UniProt P17301 30-1181).
T3 construct: whole, on cells; Transfected C2C12 cells fixed with 2% paraformaldehyde/PBS before staining; not shown: mCherry tag
T3 sequence (looked up): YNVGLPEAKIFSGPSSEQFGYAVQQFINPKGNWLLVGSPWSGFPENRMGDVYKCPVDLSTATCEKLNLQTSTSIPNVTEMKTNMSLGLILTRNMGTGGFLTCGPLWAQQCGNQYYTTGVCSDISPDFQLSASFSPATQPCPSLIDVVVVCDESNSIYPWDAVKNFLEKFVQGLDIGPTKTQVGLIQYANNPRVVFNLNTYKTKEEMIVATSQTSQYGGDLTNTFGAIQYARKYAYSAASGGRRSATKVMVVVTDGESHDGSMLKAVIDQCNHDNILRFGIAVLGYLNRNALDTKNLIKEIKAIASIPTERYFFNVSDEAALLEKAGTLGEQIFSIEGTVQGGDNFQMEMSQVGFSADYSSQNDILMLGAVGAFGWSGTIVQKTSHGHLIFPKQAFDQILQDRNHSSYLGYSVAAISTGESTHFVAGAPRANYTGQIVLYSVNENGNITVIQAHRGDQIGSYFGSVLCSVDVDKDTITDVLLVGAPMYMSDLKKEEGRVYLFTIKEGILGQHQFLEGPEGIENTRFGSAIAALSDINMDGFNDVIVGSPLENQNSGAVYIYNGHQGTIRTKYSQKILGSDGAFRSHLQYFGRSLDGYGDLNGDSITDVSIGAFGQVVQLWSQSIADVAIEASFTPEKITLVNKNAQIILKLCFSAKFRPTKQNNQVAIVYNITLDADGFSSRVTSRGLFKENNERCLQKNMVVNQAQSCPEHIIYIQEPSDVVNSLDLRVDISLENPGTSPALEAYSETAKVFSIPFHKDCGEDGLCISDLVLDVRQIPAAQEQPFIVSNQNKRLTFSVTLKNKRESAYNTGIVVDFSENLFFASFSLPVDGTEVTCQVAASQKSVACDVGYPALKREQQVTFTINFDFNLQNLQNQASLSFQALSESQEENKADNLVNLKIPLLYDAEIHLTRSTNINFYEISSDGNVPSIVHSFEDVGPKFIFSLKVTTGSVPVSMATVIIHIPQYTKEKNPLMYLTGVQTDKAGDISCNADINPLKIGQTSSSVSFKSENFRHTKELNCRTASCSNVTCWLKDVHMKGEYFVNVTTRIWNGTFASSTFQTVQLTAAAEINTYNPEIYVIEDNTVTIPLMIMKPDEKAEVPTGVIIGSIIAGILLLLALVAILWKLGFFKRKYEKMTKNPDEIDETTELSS
On the procedure: as §1

B1: monoclonal mouse antibody 234 H11E8 produced by the hybridoma deposited as DSM ACC3319 (antibody, V domains shown)
VH: QVQLKESGPGLVAPSQSLSITCTVSGFSLTNSAVHWVRQSPGKGLEWLGVVWSYGSTDYNAAFISRLSITKDNSKSQVFFKMNSLQADDTAIYYCARSQIYADYYDYFDYWGQGTTLTVSS
VL: DIQMTQSTSSLSASLGDRVTISCRASQDISNFLNWSQQKPDGTVKLLIYYTSRLHSGVPSRFSGSGSGTDYSLTISNLEQEDIGTYFCQQGNTLPLTFGAGTKLELR
notes: Mouse anti-human alpha-11 IgG from a hybridoma (NT-HRM mice); used as hybridoma supernatant or mAb; constant regions are not; also called 234H11E8 mAb; α11 234H11E8 mAb
As to B1, the binding result in experiment [1] was “binds”; in experiment [2] it was “no binding”; in experiment [3] it was “no binding”.

B2: monoclonal mouse antibody 203 E1H5 produced by the hybridoma deposited as DSM ACC3318 (antibody, V domains shown)
VH: QVQLKESGPGLVAPSQSLSITCTVSGFSLTNYAVHWVRQSPGKGLEWLGVIWSYGSTDYNAAFISKLSISKDNSKSQVFFTMSSLQADDTAIYYCARSQIYGGFYDFFDFWGQGTTLTVSS
VL: CDIQMTQTPSSLSASLGDRVTIICRASQDISNFLNWFQQKPDGTIKLLIYYSSRLHSGVPSRFSGSGSGTDYSLTISNLEQEDLATYFCQQGNTLPLTFGAGTKLELT
notes: Mouse anti-human alpha-11 IgG from a hybridoma (NT-HRM mice); used as hybridoma supernatant or mAb; also called 203E1H5 mAb; α11 203E1H5 mAb
As to B2, the binding result in experiment [2] and in experiment [3] was “no binding” each time.

The values above are taken from patent US20210079099A1 (VESTLANDETS INNOVASJONSSELSKAP, published 2021).
